Measurements: US20210332138A1 (1GLOBE BIOMEDICAL, published 2021)

B1: full-length antibody 4-1E8 (antibody, human IgG1, V domains shown)
VH: QIQLVQSGAEVKMPGASVTISCEASGYNFISYYIHWVRQAPGQGLEWMGFVVPSGGAAGYTQKFQGRLTVTRDTSTSTVYMDLNSLTSDDTAVYYCVREMSGGWFDFWGQGTLVTVSS
VL: DIVMTQSPSSLSASVGDRVTITCRASQGIRNDLGWYQQKPGKAPKLLIYAASTLQSGVPSRFSGSGSGTDFTLTISSLQAEDVAVYYCQQYYSTPLTFGPGTKVDIK
notes: Tested as a full-length antibody made from the scFv's VH and VL in 293T cells; the summary speaks of a human IgG1 constant region, and ADCC activity is reported
B2: full-length antibody 3-1E4 (antibody, human IgG1, V domains shown)
VH: QIQLVQSGAEVKKPGSSVKVSCKASGGTFSSYAISWVRQAPGQGLEWMGGIIPIFGTANYAQKFQGRVTITADKSTSTAYMELSSLRSEDTAVYYCAGGGAVADNSYWGQGTLVTVSS
VL: DIRMTQSPSSLSASVGDRVTITCRASQGIRNDLGWYQQKPGKAPKLLIYAASSLQSGVPSRFSGSGSGTDFTLTISSLQPEDFATYYCLQDYNYPRTFGQGTKVEIK
notes: Tested as a full-length antibody; the summary speaks of human IgG1
B3: full-length antibody 3-1B11 (antibody, human IgG1, V domains shown)
VH: EVQLVESGGGLVQPGGSLRLSCAASGFTFSDYDMIWVRQAPGKGLEWVAVISYDGSNKYYADSVKGRFTISRDNSKNTLYLQMNSLRAEDTAVYYCAKEFFGAFDIWGQGTMVTVSS
VL: SSELTQDPAVSVALGQTVTITCQGDSLNYYYANWFQLKPGQAPVLVLFGKNNRPSGIPDRFSGSYSGSTASLTITGAQAEDDADYYCNSRDSGGNPWVFGGGTKLTVL
notes: as for B2

Assays:
[1] = target: T1, Rhesus PDL1 (expression construct transiently transfected into 293T cells) (Rhesus, UniProt F6VEW6 19-290); assay: FACS on 293T cells transiently transfected with Rhesus PDL1
T1 construct: whole, on cells
Protocol: (B) 293T cells were transiently transfected with Rhesus PDL1 expression construct. Embodiments 4-1E8, 3-1E4 and 3-1B11 were tested and compared to control.

[2] = target: T2, Rhesus PDL1-GFP (expression construct transiently transfected into 293T cells) (Rhesus, UniProt F6VEW6 19-290); assay: FACS on 293T cells transiently transfected with Rhesus PDL1-GFP
T2 construct: whole, on cells; not shown: GFP fused to PDL1
T2 sequence (chain, as listed by the source): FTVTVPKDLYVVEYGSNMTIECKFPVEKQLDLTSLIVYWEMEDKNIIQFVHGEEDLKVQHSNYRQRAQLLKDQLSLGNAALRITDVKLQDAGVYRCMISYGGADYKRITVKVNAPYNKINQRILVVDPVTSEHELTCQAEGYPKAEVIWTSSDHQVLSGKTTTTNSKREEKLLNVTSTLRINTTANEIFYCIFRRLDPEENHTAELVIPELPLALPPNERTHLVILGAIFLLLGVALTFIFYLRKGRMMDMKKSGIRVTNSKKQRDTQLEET
Protocol: (A) 293T cells were transiently transfected with Rhesus PDL1-GFP expression construct. Embodiments 4-1E8, 3-1E4 and 3-1B11 were tested and compared to control.

| binding result [1] | binding result [2] | Binder |
| --- | --- | --- |
| binds | binds | B1 |
| binds | binds | B2 |
| binds | binds | B3 |
